Measured values from US7041871.

Target: T1, recombinant soluble human CD4 (human, UniProt P01730 26-396, limits assumed)
T1 construct: Soluble recombinant CD4 used for ELISA and SPR/BIAcore; also called rCD4; sCD4
Assay: BIAcore; rCD4 coupled to chip, mAb flowed (avidity)
Protocol: The rate and equilibrium constants presented in Table 19 were determined with a BIAcore, using antigen (rCD4) coupled to the sensor chip and flowing mAb over. These constants were derived from at least three independent experiments using purified mAbs.

B1: 6G5.1 (antibody, human IgG1, V domains shown)
VH: QVQLQQWGAGLLKPSETLSLTCAVYGGSFSGYYWSWIRQPPGKGLEWIGEINHSGSTNYNPSLKSRVTISVDTSKNQFSLKLSSVTAADTAVYYCARVINWFDPWGQGTLVTVSS
VL: DIQMTQSPSSVSASVGDRVTITCRASQDISSWLAWYQHKPGKAPKLLIYAASSLQSGVPSRFSGSGSGTDFTLTISSLQPEDFATYYCQQANSFPYTFGQGTKLEIK
notes: Human IgG1 kappa from a hybridoma of an HC2/KCo5 mouse; VH4-34/JH5, VkL19/Jk2; also called GGS
A kon of 11000 M⁻¹ s⁻¹ was found for B1 in this work.
